In US20040002439A1 (ORTHO MCNEIL PHARMACEUTICAL, published 2004):

Biological target: Nav1.2 (a type II alpha subunit)
Assay: cell-based or functional assay

B1: human voltage gated sodium channel β1A subunit (other)
chain: ACGGCVEVDSETEAVYGMTFKILCISCKRRSETNAETFTEWTFRQKGTEEFVKILRYENEVLQLEEDERFEGRVVWNGSRGTKDLQDLSIFITNVTYNHSGDYECHVYRLLFFENYEHNTSVVKKIHIEVVDKGESGAACPFTVTHRRARWRDRWQAVDRTGWLCAWPANRPQQRAEGEGSSPSCPLQLWPLFLSSPRRGQSMPVPHRRSGYRTQLCHLCCMTSGRCLLSLSQRVVLGLPGIIIRCVSRGVV
  ionic current conducted by Nav1.2 in Xenopus oocytes (cut-open oocyte voltage clamp): ~3 fold
